Source: patent US5635601, “Beta-8 integrin subunit antibodies” (Genentech, Inc., dated 1997)

Legend:
alpha-6 integrin subunit = target: T1, alpha-6 integrin subunit (human, UniProt P23229); assay: co-immunoprecipitation from surface-labelled beta-8-transfected 293 cells with monoclonal antibody GoH3
T1 sequence 1: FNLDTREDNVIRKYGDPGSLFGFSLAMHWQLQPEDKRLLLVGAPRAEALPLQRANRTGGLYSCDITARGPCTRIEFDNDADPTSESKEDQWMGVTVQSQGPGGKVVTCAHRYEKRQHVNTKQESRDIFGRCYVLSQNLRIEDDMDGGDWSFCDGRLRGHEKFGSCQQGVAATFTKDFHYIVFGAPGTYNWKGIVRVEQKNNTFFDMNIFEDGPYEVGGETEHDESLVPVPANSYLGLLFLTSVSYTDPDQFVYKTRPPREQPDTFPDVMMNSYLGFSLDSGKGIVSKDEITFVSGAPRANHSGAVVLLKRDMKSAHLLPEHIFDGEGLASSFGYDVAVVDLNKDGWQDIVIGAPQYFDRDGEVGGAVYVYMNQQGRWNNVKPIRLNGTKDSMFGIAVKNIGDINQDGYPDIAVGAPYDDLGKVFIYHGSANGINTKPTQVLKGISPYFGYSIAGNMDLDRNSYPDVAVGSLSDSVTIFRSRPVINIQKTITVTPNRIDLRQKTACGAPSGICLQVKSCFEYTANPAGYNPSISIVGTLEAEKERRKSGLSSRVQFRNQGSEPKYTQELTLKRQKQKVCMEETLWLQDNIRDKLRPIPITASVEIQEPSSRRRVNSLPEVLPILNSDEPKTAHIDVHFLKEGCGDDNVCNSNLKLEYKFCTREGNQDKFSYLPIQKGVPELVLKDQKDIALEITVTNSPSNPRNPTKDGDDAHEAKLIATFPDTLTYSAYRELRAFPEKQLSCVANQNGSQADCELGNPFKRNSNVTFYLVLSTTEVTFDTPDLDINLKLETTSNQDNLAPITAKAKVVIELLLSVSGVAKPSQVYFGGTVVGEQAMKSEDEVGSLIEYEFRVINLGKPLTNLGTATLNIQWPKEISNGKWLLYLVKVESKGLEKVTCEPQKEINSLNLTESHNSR
T1 sequence 2: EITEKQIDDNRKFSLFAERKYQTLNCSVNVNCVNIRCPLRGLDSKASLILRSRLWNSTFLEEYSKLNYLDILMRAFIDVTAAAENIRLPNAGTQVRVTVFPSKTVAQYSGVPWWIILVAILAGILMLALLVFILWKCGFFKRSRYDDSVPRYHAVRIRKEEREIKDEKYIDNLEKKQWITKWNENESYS
Procedure: (§1) For the immunoprecipitation, four hundred microliters of the labelled cell extract was incubated with 1/100 volume of antibody (ascites, culture supernatant or antiserum) at 4° C. overnight, and immunoprecipitations were carried out using Protein G Sepharose™ 4FF (Pharmacia) after first preclearing with SEPHAROSE™ CL-4B (Pharmacia). Protein G SEPHAROSE™ beads were washed three times with 0.05% Tween 20, 20mM Tris pH 8, 120 mM NaCl, 2 mM CaCl_2. Proteins precipitated from the labelled cell extracts were solubilized by heating in sample buffer and analyzed by separation on a 7.5% SDS-polyacrylamide gel followed by autoradiography.
(§2) These cells endogenously express various alpha integrin subunits, including alpha-v. The beta-8 integrin transfected cell proteins were prepared for immunoprecipitation as described in Example 4.
(§3) Monoclonal antibodies against several different alpha integrin subunits were used in the immunoprecipitations in order to identify with which alpha subunit the beta-8 integrin formed a complex. […]

alpha-3 integrin subunit = target: T2, alpha-3 integrin subunit (human, UniProt P26006); assay: co-immunoprecipitation from surface-labelled beta-8-transfected 293 cells with monoclonal antibody P1B5
T2 sequence 1: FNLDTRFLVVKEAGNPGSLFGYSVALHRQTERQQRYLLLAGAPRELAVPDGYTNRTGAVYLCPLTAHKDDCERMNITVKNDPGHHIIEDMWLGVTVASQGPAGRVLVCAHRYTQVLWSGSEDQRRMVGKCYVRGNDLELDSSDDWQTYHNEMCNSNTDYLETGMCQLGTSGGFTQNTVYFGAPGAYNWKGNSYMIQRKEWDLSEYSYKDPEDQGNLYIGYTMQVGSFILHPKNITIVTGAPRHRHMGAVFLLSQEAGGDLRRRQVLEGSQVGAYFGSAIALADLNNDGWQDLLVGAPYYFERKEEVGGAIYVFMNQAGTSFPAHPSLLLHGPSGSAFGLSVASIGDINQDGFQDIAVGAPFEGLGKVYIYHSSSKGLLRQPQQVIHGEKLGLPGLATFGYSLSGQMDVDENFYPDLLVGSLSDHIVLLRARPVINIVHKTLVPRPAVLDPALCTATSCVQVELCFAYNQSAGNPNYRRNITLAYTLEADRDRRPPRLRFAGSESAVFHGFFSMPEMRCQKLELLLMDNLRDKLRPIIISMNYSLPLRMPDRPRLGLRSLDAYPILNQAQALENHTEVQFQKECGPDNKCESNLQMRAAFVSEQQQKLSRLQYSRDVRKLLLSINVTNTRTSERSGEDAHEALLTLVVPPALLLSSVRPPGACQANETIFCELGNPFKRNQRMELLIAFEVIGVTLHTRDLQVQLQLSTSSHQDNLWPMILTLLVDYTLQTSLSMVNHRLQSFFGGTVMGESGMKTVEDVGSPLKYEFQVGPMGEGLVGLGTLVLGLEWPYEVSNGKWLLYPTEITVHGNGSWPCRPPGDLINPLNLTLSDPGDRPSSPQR
T2 sequence 2: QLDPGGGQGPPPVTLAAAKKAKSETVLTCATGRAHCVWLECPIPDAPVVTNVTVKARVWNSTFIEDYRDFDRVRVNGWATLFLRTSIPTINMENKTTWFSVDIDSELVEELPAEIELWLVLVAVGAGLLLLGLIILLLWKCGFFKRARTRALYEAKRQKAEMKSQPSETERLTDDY
Procedure: as §1, §2, §3

alpha-5 integrin subunit = alpha-5 integrin subunit (human, UniProt P08648); assay: co-immunoprecipitation from surface-labelled beta-8-transfected 293 cells with monoclonal antibody P1D6
Procedure: as §1, §2, §3

alpha-1 integrin subunit = alpha-1 integrin subunit (human, UniProt P56199); assay: co-immunoprecipitation from surface-labelled beta-8-transfected 293 cells with monoclonal antibody TS2/7
Procedure: as §1, §2, §3

alpha-2 integrin subunit = alpha-2 integrin subunit (human, UniProt P17301); assay: co-immunoprecipitation from surface-labelled beta-8-transfected 293 cells with monoclonal antibody P1H5
Procedure: as §1, §2, §3

Measured: binding result

B1: human beta-8 integrin subunit (receptor)
chain: EDNRCASSNAASCARCLALGPECGWCVQEDFISGGSRSERCDIVSNLISKGCSVDSIEYPSVHVIIPTENEINTQVTPGEVSIQLRPGAEANFMLKVHPLKKYPVDLYYLVDVSASMHNNIEKLNSVGNDLSRKMAFFSRDFRLGFGSYVDKTVSPYISIHPERIHNQCSDYNLDCMPPHGYIHVLSLTENITEFEKAVHRQKISGNIDTPEGGFDAMLQAAVCESHIGWRKEAKRLLLVMTDQTSHLALDSKLAGIVVPNDGNCHLKNNVYVKSTTMEHPSLGQLSEKLIDNNINVIFAVQGKQFHWYKDLLPLLPGTIAGEIESKAANLNNLVVEAYQKLISEVKVQVENQVQGIYFNITAICPDGSRKPGMEGCRNVTSNDEVLFNVTVTMKKCDVTGGKNYAIIKPIGFNETAKIHIHRNCSCQCEDNRGPKGKCVDETFLDSKCFQCDENKCHFDEDQFSSESCKSHKDQPVCSGRGVCVCGKCSCHKIKLGKVYGKYCEKDDFSCPYHHGNLCAGHGECEAGRCQCFSGWEGDRCQCPSAAAQHCVNSKGQVCSGRGTCVCGRCECTDPRSIGRFCEHCPTCYTACKENWNCMQCLHPHNLSQAILDQCKTSCALMEQQHYVDQTSECFSSPSYLRIFFIIFIVTFLIGLLKVLIIRQVILQWNSNKIKSSSDYRVSASKKDKLILQSVCTRAVTYRREKPEEIKMDISKLNAHETFRCNF
modifications: surface labelled with 125I (lactoperoxidase)
no binding: alpha-6 integrin subunit | alpha-3 integrin subunit | alpha-5 integrin subunit | alpha-1 integrin subunit | alpha-2 integrin subunit
